# Data taken from article PMC9482650, “Quantitative fragmentomics allow affinity mapping of interactomes” (Nature Communications, 2022).
# B1: ARAP3_int, Q8WWN8 (peptide)
# chain: ELIQDTSTSFSTTREW
# B2: MERS-E, K9N5R3 (peptide)
# chain: DSKPPLPPDEWV
# B3: EPHA7, Q15375 (peptide)
# chain: LHLHGTGIQV
# B4: ASIC3, Q9UHC3 (peptide)
# chain: HRTCYLVTQL
# Tests used:
# Experiment in all cases: holdup assay
# Design in all cases: key: below the threshold = too weak to quantify, mostly under pKd 3.1 to 4
# GRIP1_3, Q9Y3R0 = biological target: T1, GRIP1_3, Q9Y3R0
# T1 sequence (Q9Y3R0 247-346, limits assumed, looked up): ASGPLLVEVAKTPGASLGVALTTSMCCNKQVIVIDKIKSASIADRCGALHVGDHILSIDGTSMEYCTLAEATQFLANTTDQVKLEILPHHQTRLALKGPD
# CASK, O14936 = biological target: CASK, O14936
# Chain of CASK, O14936 (O14936 487-570): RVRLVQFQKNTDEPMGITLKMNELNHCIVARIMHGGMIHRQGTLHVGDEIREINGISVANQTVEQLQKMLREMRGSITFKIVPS
# DVL3, Q92997 = biological target: T2, DVL3, Q92997
# T2 sequence (Q92997 244-331, limits assumed, looked up): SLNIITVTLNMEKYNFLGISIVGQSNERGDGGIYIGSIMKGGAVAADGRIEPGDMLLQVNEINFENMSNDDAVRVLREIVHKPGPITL
# PTPN3, P26045 = biological target: PTPN3, P26045
# Chain of PTPN3, P26045 (P26045 505-587): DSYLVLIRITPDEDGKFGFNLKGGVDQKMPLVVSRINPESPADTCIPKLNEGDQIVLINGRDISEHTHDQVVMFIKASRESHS
# GRID2IP_2, A4D2P6 = biological target: GRID2IP_2, A4D2P6
# Chain of GRID2IP_2, A4D2P6 (A4D2P6 272-370): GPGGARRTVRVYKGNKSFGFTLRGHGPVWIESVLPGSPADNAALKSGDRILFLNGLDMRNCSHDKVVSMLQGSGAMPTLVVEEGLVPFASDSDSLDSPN
# DLG3_3, Q92796 = biological target: T3, DLG3_3, Q92796
# T3 sequence (Q92796 374-475, limits assumed, looked up): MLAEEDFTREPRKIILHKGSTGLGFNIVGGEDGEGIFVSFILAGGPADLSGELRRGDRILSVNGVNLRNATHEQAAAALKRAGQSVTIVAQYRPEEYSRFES
# DLG1_1, Q12959 = biological target: DLG1_1, Q12959
# DFNB31_3, Q9P202 = biological target: T4, DFNB31_3, Q9P202
# T4 sequence (Q9P202 811-907, limits assumed, looked up): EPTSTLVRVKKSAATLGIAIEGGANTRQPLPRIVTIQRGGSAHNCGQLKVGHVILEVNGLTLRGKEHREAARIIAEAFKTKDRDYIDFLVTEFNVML
# Inadl_6, Q8NI35 = biological target: Inadl_6, Q8NI35
# Chain of Inadl_6, Q8NI35 (Q8NI35 1058-1167): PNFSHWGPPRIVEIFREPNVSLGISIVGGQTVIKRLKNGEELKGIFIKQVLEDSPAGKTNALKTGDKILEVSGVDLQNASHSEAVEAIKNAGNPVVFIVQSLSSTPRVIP
# MAGI2_3, Q86UL8 = biological target: MAGI2_3, Q86UL8
# Chain of MAGI2_3, Q86UL8 (Q86UL8 600-682): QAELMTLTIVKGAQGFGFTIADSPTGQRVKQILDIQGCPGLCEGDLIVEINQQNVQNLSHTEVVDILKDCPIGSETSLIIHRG
# LNX2_3, Q8N448 = biological target: T5, LNX2_3, Q8N448
# T5 sequence (Q8N448 463-564, limits assumed, looked up): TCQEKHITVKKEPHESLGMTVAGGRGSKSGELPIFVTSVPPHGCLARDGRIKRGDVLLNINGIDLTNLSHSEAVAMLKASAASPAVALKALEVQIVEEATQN
# PCLO, Q9Y6V0 = biological target: T6, PCLO, Q9Y6V0
# T6 sequence (Q9Y6V0 4491-4600, limits assumed, looked up): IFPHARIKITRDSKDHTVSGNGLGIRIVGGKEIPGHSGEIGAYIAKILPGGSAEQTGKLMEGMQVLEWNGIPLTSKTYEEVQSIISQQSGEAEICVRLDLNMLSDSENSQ
# GRIP1_7, Q9Y3R0 = biological target: T7, GRIP1_7, Q9Y3R0
# T7 sequence (Q9Y3R0 999-1096, limits assumed, looked up): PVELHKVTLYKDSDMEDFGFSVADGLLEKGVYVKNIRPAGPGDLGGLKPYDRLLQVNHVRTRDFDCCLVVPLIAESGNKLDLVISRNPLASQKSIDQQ
# DLG1_2, Q12959 = biological target: DLG1_2, Q12959
# MAST1, Q9Y2H9 = biological target: MAST1, Q9Y2H9
# Chain of MAST1, Q9Y2H9 (Q9Y2H9 962-1065): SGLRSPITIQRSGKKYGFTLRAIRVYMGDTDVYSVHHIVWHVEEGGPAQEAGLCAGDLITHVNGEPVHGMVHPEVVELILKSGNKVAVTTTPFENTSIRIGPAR
# RHPN1, Q8TCX5 = biological target: T8, RHPN1, Q8TCX5
# T8 sequence (Q8TCX5 508-602, limits assumed, looked up): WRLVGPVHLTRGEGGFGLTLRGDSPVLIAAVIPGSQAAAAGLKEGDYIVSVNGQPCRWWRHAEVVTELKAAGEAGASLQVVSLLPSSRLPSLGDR
# DLG4_3, P78352 = biological target: DLG4_3, P78352
# Chain of DLG4_3, P78352 (P78352 306-403): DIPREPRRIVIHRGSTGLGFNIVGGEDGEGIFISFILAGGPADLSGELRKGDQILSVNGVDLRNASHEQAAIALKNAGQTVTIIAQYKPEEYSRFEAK
# Inadl_10, Q8NI35 = biological target: Inadl_10, Q8NI35
# Chain of Inadl_10, Q8NI35 (Q8NI35 1673-1763): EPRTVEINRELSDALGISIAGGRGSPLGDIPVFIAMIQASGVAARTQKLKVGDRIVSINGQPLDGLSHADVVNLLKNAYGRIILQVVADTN
# TIAM2, Q8IVF5 = biological target: T9, TIAM2, Q8IVF5
# T9 sequence (Q8IVF5 885-986, limits assumed, looked up): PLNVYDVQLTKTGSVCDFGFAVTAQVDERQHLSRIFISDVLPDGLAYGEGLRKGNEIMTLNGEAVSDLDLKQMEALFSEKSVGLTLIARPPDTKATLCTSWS
# TJP2_1, Q9UDY2 = biological target: TJP2_1, Q9UDY2
# Chain of TJP2_1, Q9UDY2 (Q9UDY2 24-128): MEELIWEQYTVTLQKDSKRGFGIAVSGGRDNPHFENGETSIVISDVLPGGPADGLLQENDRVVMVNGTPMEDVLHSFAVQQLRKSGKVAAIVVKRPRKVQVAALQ
# DFNB31_1, Q9P202 = biological target: T10, DFNB31_1, Q9P202
# T10 sequence (Q9P202 135-233, limits assumed, looked up): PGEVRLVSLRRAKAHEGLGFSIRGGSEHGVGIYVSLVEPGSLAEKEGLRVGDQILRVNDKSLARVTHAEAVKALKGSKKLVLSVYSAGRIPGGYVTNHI
# NHERF2_2, Q15599 = biological target: NHERF2_2, Q15599
# Chain of NHERF2_2, Q15599 (Q15599 142-238): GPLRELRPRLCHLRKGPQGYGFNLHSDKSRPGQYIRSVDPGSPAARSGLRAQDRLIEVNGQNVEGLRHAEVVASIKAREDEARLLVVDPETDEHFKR
# CARD11, Q9BXL7 = biological target: T11, CARD11, Q9BXL7
# T11 sequence (Q9BXL7 662-765, limits assumed, looked up): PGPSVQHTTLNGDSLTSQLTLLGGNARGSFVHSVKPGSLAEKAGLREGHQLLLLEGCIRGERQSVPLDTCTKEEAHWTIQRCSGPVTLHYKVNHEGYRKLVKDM
# FRMPD3, Q5JV73 = biological target: FRMPD3, Q5JV73
# Chain of FRMPD3, Q5JV73 (Q5JV73 12-100): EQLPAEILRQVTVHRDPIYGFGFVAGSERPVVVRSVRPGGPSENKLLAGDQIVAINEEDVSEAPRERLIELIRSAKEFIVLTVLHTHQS
# MAGI1_2, Q96QZ7 = biological target: MAGI1_2, Q96QZ7
# Chain of MAGI1_2, Q96QZ7 (Q96QZ7 456-580): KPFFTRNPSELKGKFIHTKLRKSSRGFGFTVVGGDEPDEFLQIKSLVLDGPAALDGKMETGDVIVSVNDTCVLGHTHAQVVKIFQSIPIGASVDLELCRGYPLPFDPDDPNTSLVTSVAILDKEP
# MAGI2_5, Q86UL8 = biological target: MAGI2_5, Q86UL8
# Chain of MAGI2_5, Q86UL8 (Q86UL8 915-1017): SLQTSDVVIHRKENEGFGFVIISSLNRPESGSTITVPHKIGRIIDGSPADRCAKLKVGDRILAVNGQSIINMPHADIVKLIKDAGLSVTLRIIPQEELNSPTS
# SCRIB_3, Q14160 = biological target: SCRIB_3, Q14160
# Chain of SCRIB_3, Q14160 (Q14160 999-1103): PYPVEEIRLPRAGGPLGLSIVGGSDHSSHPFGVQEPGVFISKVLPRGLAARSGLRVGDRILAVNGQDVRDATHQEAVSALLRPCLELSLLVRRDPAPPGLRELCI
# [1] = plain residues with an end cap or a label only (N-terminal biotin on a linker: gsgsgs; C-terminal amide)
# [2] = plain residues with an end cap or a label only (N-terminal biotin on a linker: none)
# [3] = plain residues with an end cap or a label only (N-terminal biotin on a linker: ado-ado)
# [4] = plain residues with an end cap or a label only (N-terminal biotin on a linker: ttds)
binder,measurement,setting,value
B1,pKd,"GRIP1_3, Q9Y3R0; [1]",below the threshold
same,pKd,"CASK, O14936; [1]",below the threshold
same,pKd,"DVL3, Q92997; [1]",below the threshold
same,pKd,"PTPN3, P26045; [1]",3.84
same,pKd,"GRID2IP_2, A4D2P6; [1]",3.89
same,pKd,"DLG3_3, Q92796; [1]",below the threshold
same,pKd,"DLG1_1, Q12959; [1]",below the threshold
same,pKd,"DFNB31_3, Q9P202; [1]",3.83
same,pKd,"Inadl_6, Q8NI35; [1]",below the threshold
same,pKd,"MAGI2_3, Q86UL8; [1]",3.5
same,pKd,"LNX2_3, Q8N448; [1]",below the threshold
same,pKd,"PCLO, Q9Y6V0; [1]",below the threshold
same,pKd,"GRIP1_7, Q9Y3R0; [1]",below the threshold
same,pKd,"DLG1_2, Q12959; [1]",below the threshold
same,pKd,"MAST1, Q9Y2H9; [1]",3.49
same,pKd,"RHPN1, Q8TCX5; [1]",below the threshold
same,pKd,"DLG4_3, P78352; [1]",below the threshold
same,pKd,"Inadl_10, Q8NI35; [1]",below the threshold
same,pKd,"TIAM2, Q8IVF5; [1]",3.97
same,pKd,"TJP2_1, Q9UDY2; [1]",below the threshold
same,pKd,"DFNB31_1, Q9P202; [1]",below the threshold
same,pKd,"NHERF2_2, Q15599; [1]",below the threshold
same,pKd,"CARD11, Q9BXL7; [1]",below the threshold
same,pKd,"FRMPD3, Q5JV73; [1]",below the threshold
same,pKd,"MAGI1_2, Q96QZ7; [1]",below the threshold
same,pKd,"MAGI2_5, Q86UL8; [1]",below the threshold
same,pKd,"SCRIB_3, Q14160; [1]",below the threshold
B2,pKd,"GRIP1_3, Q9Y3R0; [2]",below the threshold
same,pKd,"CASK, O14936; [2]",3.48
same,pKd,"DVL3, Q92997; [2]",3.78
same,pKd,"PTPN3, P26045; [2]",3.87
same,pKd,"GRID2IP_2, A4D2P6; [2]",3.53
same,pKd,"DLG3_3, Q92796; [2]",3.58
same,pKd,"DLG1_1, Q12959; [2]",below the threshold
same,pKd,"DFNB31_3, Q9P202; [2]",below the threshold
same,pKd,"Inadl_6, Q8NI35; [2]",3.81
same,pKd,"MAGI2_3, Q86UL8; [2]",below the threshold
same,pKd,"LNX2_3, Q8N448; [2]",below the threshold
same,pKd,"PCLO, Q9Y6V0; [2]",below the threshold
same,pKd,"GRIP1_7, Q9Y3R0; [2]",3.88
same,pKd,"DLG1_2, Q12959; [2]",3.57
same,pKd,"MAST1, Q9Y2H9; [2]",3.91
same,pKd,"RHPN1, Q8TCX5; [2]",below the threshold
same,pKd,"DLG4_3, P78352; [2]",3.64
same,pKd,"Inadl_10, Q8NI35; [2]",below the threshold
same,pKd,"TIAM2, Q8IVF5; [2]",below the threshold
same,pKd,"TJP2_1, Q9UDY2; [2]",3.84
same,pKd,"DFNB31_1, Q9P202; [2]",3.61
same,pKd,"NHERF2_2, Q15599; [2]",below the threshold
same,pKd,"CARD11, Q9BXL7; [2]",below the threshold
same,pKd,"FRMPD3, Q5JV73; [2]",4.17
same,pKd,"MAGI1_2, Q96QZ7; [2]",below the threshold
same,pKd,"MAGI2_5, Q86UL8; [2]",below the threshold
same,pKd,"SCRIB_3, Q14160; [2]",3.9
B3,pKd,"GRIP1_3, Q9Y3R0; [3]",below the threshold
same,pKd,"CASK, O14936; [3]",below the threshold
same,pKd,"DVL3, Q92997; [3]",below the threshold
same,pKd,"PTPN3, P26045; [3]",4.06
same,pKd,"GRID2IP_2, A4D2P6; [3]",below the threshold
same,pKd,"DLG3_3, Q92796; [3]",3.51
same,pKd,"DLG1_1, Q12959; [3]",below the threshold
same,pKd,"DFNB31_3, Q9P202; [3]",3.99
same,pKd,"Inadl_6, Q8NI35; [3]",below the threshold
same,pKd,"MAGI2_3, Q86UL8; [3]",3.63
same,pKd,"LNX2_3, Q8N448; [3]",3.47
same,pKd,"PCLO, Q9Y6V0; [3]",below the threshold
same,pKd,"GRIP1_7, Q9Y3R0; [3]",3.49
same,pKd,"DLG1_2, Q12959; [3]",3.6
same,pKd,"MAST1, Q9Y2H9; [3]",below the threshold
same,pKd,"RHPN1, Q8TCX5; [3]",below the threshold
same,pKd,"DLG4_3, P78352; [3]",below the threshold
same,pKd,"Inadl_10, Q8NI35; [3]",below the threshold
same,pKd,"TIAM2, Q8IVF5; [3]",below the threshold
same,pKd,"TJP2_1, Q9UDY2; [3]",below the threshold
same,pKd,"DFNB31_1, Q9P202; [3]",3.53
same,pKd,"NHERF2_2, Q15599; [3]",below the threshold
same,pKd,"CARD11, Q9BXL7; [3]",below the threshold
same,pKd,"FRMPD3, Q5JV73; [3]",3.5
same,pKd,"MAGI1_2, Q96QZ7; [3]",below the threshold
same,pKd,"MAGI2_5, Q86UL8; [3]",below the threshold
same,pKd,"SCRIB_3, Q14160; [3]",3.53
B4,pKd,"GRIP1_3, Q9Y3R0; [4]",below the threshold
same,pKd,"CASK, O14936; [4]",below the threshold
same,pKd,"DVL3, Q92997; [4]",3.3
same,pKd,"PTPN3, P26045; [4]",4.48
same,pKd,"GRID2IP_2, A4D2P6; [4]",4.56
same,pKd,"DLG3_3, Q92796; [4]",3.49
same,pKd,"DLG1_1, Q12959; [4]",3.97
same,pKd,"DFNB31_3, Q9P202; [4]",4.25
same,pKd,"Inadl_6, Q8NI35; [4]",4.23
same,pKd,"MAGI2_3, Q86UL8; [4]",3.47
same,pKd,"LNX2_3, Q8N448; [4]",below the threshold
same,pKd,"PCLO, Q9Y6V0; [4]",below the threshold
same,pKd,"GRIP1_7, Q9Y3R0; [4]",below the threshold
same,pKd,"DLG1_2, Q12959; [4]",4.12
same,pKd,"MAST1, Q9Y2H9; [4]",4
same,pKd,"RHPN1, Q8TCX5; [4]",4.46
same,pKd,"DLG4_3, P78352; [4]",3.6
same,pKd,"Inadl_10, Q8NI35; [4]",3.84
same,pKd,"TIAM2, Q8IVF5; [4]",3.3
same,pKd,"TJP2_1, Q9UDY2; [4]",3.89
same,pKd,"DFNB31_1, Q9P202; [4]",3.67
same,pKd,"NHERF2_2, Q15599; [4]",4.5
same,pKd,"CARD11, Q9BXL7; [4]",below the threshold
same,pKd,"FRMPD3, Q5JV73; [4]",3.53
same,pKd,"MAGI1_2, Q96QZ7; [4]",4.83
same,pKd,"MAGI2_5, Q86UL8; [4]",4.63
same,pKd,"SCRIB_3, Q14160; [4]",4.85
